Key:
Experiment in all cases: filter
[1] = tested on: T1, VEGF-121 (Homo sapiens), P15692-9
T1 sequence: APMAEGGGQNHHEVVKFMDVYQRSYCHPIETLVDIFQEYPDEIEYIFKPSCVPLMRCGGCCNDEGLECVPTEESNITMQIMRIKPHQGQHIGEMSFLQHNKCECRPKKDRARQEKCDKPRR

[2] = tested on: T2, VEGF-164 (Rattus norvegicus), P16612-2; conditions: P=Nap-dU
T2 sequence: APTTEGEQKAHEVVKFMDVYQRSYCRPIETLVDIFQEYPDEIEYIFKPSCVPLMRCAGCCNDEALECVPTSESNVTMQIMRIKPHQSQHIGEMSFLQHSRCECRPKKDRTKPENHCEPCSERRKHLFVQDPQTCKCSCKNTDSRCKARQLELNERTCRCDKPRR

[3] = tested on: T3, VEGF-165 (Homo sapiens), P15692-4
T3 sequence: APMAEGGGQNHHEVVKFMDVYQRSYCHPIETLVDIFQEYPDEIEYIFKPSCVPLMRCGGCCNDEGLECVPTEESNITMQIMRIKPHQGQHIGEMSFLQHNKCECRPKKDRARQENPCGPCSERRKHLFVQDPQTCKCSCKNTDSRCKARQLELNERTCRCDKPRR

[4] = biological target: PDGF-BB (platelet-derived growth factor BB) (Homo sapiens) (UniProt P01127)
PDGF-AB = PDGF-AB (UniProt P04085+P01127)
[5] = Bn-dU, Heg linker, 2'-OMe A3, A11, A19, A21, G24
[6] = Nap-dU, Bn-dU, MBn-dU, 2'-OMe, C3, 4 Heg between parts
[7] = Nap-dU, Bn-dU, MBn-dU, 2'-OMe, C3, 3 Heg between parts
[8] = Bn-dU, MBn-dU, Nap-dU, 2'-OMe, C3, 4 Heg between parts
[9] = Bn-dU, MBn-dU, Nap-dU, 2'-OMe, C3, 2 Heg between parts
[10] = Nap-dU, Bn-dU, MBn-dU, 2'-OMe, C3, 5 Heg between parts
[11] = Z BndU, P NapdU, 2'-OMe at superscript-1 positions, C3 spacers, three Heg linkers
[12] = BndU at 1,2,7,8,16,17,18,20, Heg at 5, 2'-OMe A3,A11,A21,G24
[13] = Nap-dU, Bn-dU, MBn-dU, 2'-OMe, C3, 6 Heg between parts
[14] = Nap-dU, Bn-dU, MBn-dU, 2'-OMe, C3, 2 Heg between parts
[15] = Nap-dU, Bn-dU, MBn-dU, 2'-OMe, C3, 1 Heg between parts

PDGF-AB, sequence (P01127 82-190, chain 2 of 2, other chains not shown): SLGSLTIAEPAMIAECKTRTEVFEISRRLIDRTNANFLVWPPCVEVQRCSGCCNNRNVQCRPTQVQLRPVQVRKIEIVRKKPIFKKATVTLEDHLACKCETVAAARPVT
PDGF-BB (platelet-derived growth factor BB) (Homo sapiens), sequence (P01127 82-190): as the sequence (P01127 82-190, chain 2 of 2, other chains not shown) above

Sequence: TCAATCAGCCGTTCAAGTGCTTGTAGGATTTAAATGG [4867-31_23]
- Kd ([1]; NapdU at P): 1.3 nM
- Kd [2]: 0.66 nM
- Kd ([3]; NapdU at P): 0.3 nM

Sequence: CCGTTCAAGTGCTTTAGATTTAAATGGTTACGTTACACGCGTTTATAGC [4149-8_314]
- Kd ([1]; VEGF-1Heg-PDGF, NapdU, BndU): 1.55 nM
- Kd ([4]; VEGF-1Heg-PDGF, NapdU, BndU): 0.136 nM
- Kd (PDGF-AB; VEGF-1Heg-PDGF, NapdU, BndU): 0.111 nM
- Kd ([3]; Nap-dU, Bn-dU, C3, 1 Heg linker, 2'-OMe, VEGF): 0.143 nM

Sequence: TCAGCCGTTCAAGTGCTTGTAGGATTTAAATGGAA [4867-31_35]
- Kd [2]: 0.05 nM
- Kd ([3]; P=Nap-dU): 0.11 nM

Sequence: TCAGCCGTTCAAGTGCTTGTAGGATTTAAATGGA [4867-31_41]
- Kd ([1]; P=Nap-dU): 0.63 nM
- Kd [2]: 0.08 nM
- Kd ([3]; P=Nap-dU): 0.13 nM

Sequence: CAGCCGTTCAAGTGCTTGTAGGATTTAAATG [4867-31_45]
- Kd ([1]; NapdU at P): 3.3 nM
- Kd [2]: 4.5 nM
- Kd ([3]; NapdU at P): 1.1 nM

Sequence: CAATCAGCCGTTCAAGTGCTTGTAGGATTTAAATGGAAT [4867-31_26]
- Kd ([1]; P=Nap-dU): 0.49 nM
- Kd [2]: 0.07 nM
- Kd ([3]; P=Nap-dU, SB18T, 37 C): 0.075 nM

Sequence: CCGTTCAAGTGCTTTAGATTTAAATGGTTACGTTACACGCGTTTATAGC [4149-8_316]
- Kd ([1]; VEGF-3Heg-PDGF, NapdU, BndU): 0.5 nM
- Kd ([4]; VEGF-3Heg-PDGF, NapdU, BndU): 0.0897 nM
- Kd (PDGF-AB; VEGF-3Heg-PDGF, NapdU, BndU): 0.137 nM
- Kd ([3]; Nap-dU, Bn-dU, C3, 3 Heg linker, 2'-OMe, VEGF): 0.157 nM

Sequence: TCAATCAGCCGTTCAAGTGCTTGTAGGATTTAAAT [4867-31_25]
- Kd ([1]; NapdU at P): 70 nM
- Kd [2]: 16 nM
- Kd ([3]; NapdU at P): 26 nM

Sequence: ATCAGCCGTTCAAGTGCTTGTAGGATTTAAATGGAA [4867-31_34]
- Kd ([1]; P=Nap-dU): 0.47 nM
- Kd [2]: 0.05 nM
- Kd ([3]; P=Nap-dU): 0.35 nM

Sequence: TTACGTTACACGCGTTTATAGCG [4149-8_273]
- Kd [4, 5]: 0.0614 nM
- Kd (PDGF-AB; [5]): 0.189 nM

Sequence: TCAATCAGCCGTTCAAGTGCTTGTAGGATTTAAATGGA [4867-31_22]
- Kd ([1]; NapdU at P): 0.82 nM
- Kd [2]: 0.54 nM
- Kd ([3]; NapdU at P): 0.26 nM

Sequence: GCCGTTCAAGTGCTTGTAGGATTTAAATGGA [4867-31_58]
- Kd ([1]; NapdU at P): 0.15 nM
- Kd [2]: 0.21 nM
- Kd ([3]; NapdU at P): 0.1 nM

Sequence: CCGTTCAAGTGCTTGTAGGATTTAAATGGTTACGTTACCGCGTTTATAGCG [4149-8_411]
- Kd [1, 6]: 0.02 nM
- Kd [4, 6]: 0.0072 nM
- Kd [3, 6]: 0.045 nM

Sequence: GTTCAAGTGCTTGTAGGATTTAAATGGA [4867-31_61]
- Kd ([1]; NapdU at P): 33 nM
- Kd [2]: 13 nM
- Kd ([3]; NapdU at P): 2.9 nM

Sequence: CAGCCGTTCAAGTGCTTGTAGGATTTAAATGG [4867-31_44]
- Kd ([1]; NapdU at P): 0.14 nM
- Kd [2]: 0.38 nM
- Kd ([3]; NapdU at P): 0.13 nM

Sequence: CAGCCGTTCAAGTGCTTGTAGGATTTAA [4867-31_48]
- Kd [2]: 142 nM

Sequence: AGCCGTTCAAGTGCTTGTAGGATTTAAATGGAAT [4867-31_31]
- Kd ([1]; P=Nap-dU): 1 nM
- Kd [2]: 0.12 nM
- Kd ([3]; P=Nap-dU): 0.17 nM

Sequence: AGCCGTTCAAGTGCTTGTAGGATTTAAATGGAA [4867-31_37]
- Kd ([1]; P=Nap-dU): 0.21 nM
- Kd [2]: 0.04 nM
- Kd ([3]; P=Nap-dU): 0.092 nM

Sequence: CCGTTCAAGTGCTTTAGATTTAAATGGTTACGTTACACGCGTTTATAGC [4149-8_315]
- Kd ([1]; VEGF-2Heg-PDGF, NapdU, BndU): 0.758 nM
- Kd ([4]; VEGF-2Heg-PDGF, NapdU, BndU): 0.119 nM
- Kd (PDGF-AB; VEGF-2Heg-PDGF, NapdU, BndU): 0.123 nM
- Kd ([3]; Nap-dU, Bn-dU, C3, 2 Heg linker, 2'-OMe, VEGF): 0.086 nM

Sequence: CGTTCAAGTGCTTGTAGGATTTAAATGGA [4867-31_60]
- Kd ([1]; NapdU at P): 2.2 nM
- Kd [2]: 1.4 nM
- Kd ([3]; NapdU at P): 0.61 nM

Sequence: TCAGCCGTTCAAGTGCTTGTAGGATTTAAATGGAAT [4867-31_29]
- Kd ([1]; P=Nap-dU): 0.96 nM
- Kd [2]: 0.08 nM
- Kd ([3]; P=Nap-dU): 0.13 nM

Sequence: CAATCAGCCGTTCAAGTGCTTGTAGGATTTAAATGGA [4867-31_38]
- Kd ([1]; P=Nap-dU): 0.81 nM
- Kd [2]: 0.09 nM
- Kd ([3]; P=Nap-dU): 0.17 nM

Sequence: CCGTTCAAGTGCTTGTAGGATTTAAATGGTTACGTTACCGCGTTTATAGCG [4149-8_410]
- Kd [1, 7]: 0.026 nM
- Kd [4, 7]: 0.02 nM
- Kd [3, 7]: 0.033 nM

Sequence: TTACGTTACCGCGTTTATAGCGCCGTTCAAGTGCTTGTAGGATTTAAATGG [4149-8_415]
- Kd [1, 8]: 0.04 nM
- Kd [4, 8]: 0.0081 nM
- Kd [3, 8]: 0.03 nM

Sequence: CAGCCGTTCAAGTGCTTGTAGGATTTAAATGGAA [4867-31_36]
- Kd ([1]; P=Nap-dU): 0.39 nM
- Kd [2]: 0.06 nM
- Kd ([3]; P=Nap-dU): 0.11 nM

Sequence: TTACGTTACCGCGTTTATAGCGCCGTTCAAGTGCTTGTAGGATTTAAATGG [4149-8_414]
- Kd [1, 9]: 0.023 nM
- Kd [4, 9]: 0.01 nM
- Kd [3, 9]: 0.051 nM

Sequence: CCGTTCAAGTGCTTGTAGGATTTAAATGGTTACGTTACCGCGTTTATAGCG [4149-8_412]
- Kd [1, 10]: 0.02 nM
- Kd [4, 10]: 0.0086 nM
- Kd [3, 10]: 0.045 nM

Sequence: TTACGTTACACGCGTTTATAGCGCCGTTCAAGTGCTTTAGATTTAAATG [4149-8_320]
- Kd [1, 11]: 0.422 nM
- Kd [4, 11]: 0.015 nM
- Kd (PDGF-AB; PDGF-3Heg-VEGF, NapdU, BndU): 0.0493 nM
- Kd ([3]; PDGF-3Heg-VEGF, NapdU, BndU): 0.0768 nM

Sequence: AGCCGTTCAAGTGCTTGTAGGATTTAAATG [4867-31_52]
- Kd ([1]; NapdU at P): 2.8 nM
- Kd [2]: 0.58 nM
- Kd ([3]; NapdU at P): 0.17 nM

Sequence: TTACGACTACGTTACACGCGTTTATAGC [4149-8_39]
- Kd ([4]; BndU at 1,2,8,12,13,21,22,23,25, rest DNA, SB18T, 37 C, Table 18 gives 87.5 pM): 0.11 nM
- Kd (PDGF-AB; BndU at 1,2,8,12,13,21,22,23,25, rest DNA): 0.0476 nM

Sequence: AATCAGCCGTTCAAGTGCTTGTAGGATTTAAATGGA [4867-31_39]
- Kd ([1]; P=Nap-dU): 0.62 nM
- Kd [2]: 0.09 nM
- Kd ([3]; P=Nap-dU): 0.2 nM

Sequence: TTACGTTACACGCGTTTATAGCG [4149-8_130]
- Kd [4, 12]: 0.0759 nM
- Kd (PDGF-AB; [12]): 0.141 nM

Sequence: CCGTTCAAGTGCTTGTAGGATTTAAATGGTTACGTTACCGCGTTTATAGCG [4149-8_413]
- Kd [1, 13]: 0.04 nM
- Kd [4, 13]: 0.01 nM
- Kd [3, 13]: 0.063 nM

Sequence: CCGTTCAAGTGCTTGTAGGATTTAAATGGTTACGTTACCGCGTTTATAGCG [4149-8_409]
- Kd [1, 14]: 0.026 nM
- Kd [4, 14]: 0.6 nM
- Kd [3, 14]: 0.029 nM

Sequence: CAATCAGCCGTTCAAGTGCTTGTAGGATTTAAATGGAA [4867-31_32]
- Kd ([1]; P=Nap-dU): 0.51 nM
- Kd [2]: 0.06 nM
- Kd ([3]; P=Nap-dU): 0.1 nM

Sequence: AATCAGCCGTTCAAGTGCTTGTAGGATTTAAATGGAA [4867-31_33]
- Kd ([1]; P=Nap-dU): 0.55 nM
- Kd [2]: 0.04 nM
- Kd ([3]; P=Nap-dU): 0.11 nM

Sequence: TCAATCAGCCGTTCAAGTGCTTGTAGGATTTAAATG [4867-31_24]
- Kd ([1]; NapdU at P): 36 nM
- Kd [2]: 4.2 nM
- Kd ([3]; NapdU at P): 2.8 nM

Sequence: AATCAGCCGTTCAAGTGCTTGTAGGATTTAAATGGAAT [4867-31_27]
- Kd ([1]; P=Nap-dU): 0.59 nM
- Kd [2]: 0.07 nM
- Kd ([3]; P=Nap-dU): 0.11 nM

Sequence: CAGCCGTTCAAGTGCTTGTAGGATTTAAATGGAAT [4867-31_30]
- Kd ([1]; P=Nap-dU): 1.4 nM
- Kd [2]: 0.15 nM
- Kd ([3]; P=Nap-dU): 0.2 nM

Sequence: CCGTTCAAGTGCTTGTAGGATTTAAATGGA [4867-31_59]
- Kd ([1]; NapdU at P): 0.14 nM
- Kd [2]: 0.2 nM
- Kd ([3]; NapdU at P): 0.16 nM

Sequence: ATCAGCCGTTCAAGTGCTTGTAGGATTTAAATGGA [4867-31_40]
- Kd ([1]; P=Nap-dU): 0.7 nM
- Kd [2]: 0.1 nM
- Kd ([3]; P=Nap-dU): 0.14 nM

Sequence: ATCAGCCGTTCAAGTGCTTGTAGGATTTAAATGGAAT [4867-31_28]
- Kd ([1]; P=Nap-dU): 0.97 nM
- Kd [2]: 0.07 nM
- Kd ([3]; P=Nap-dU): 0.1 nM

Sequence: CCGTTCAAGTGCTTGTAGGATTTAAATGGTTACGTTACCGCGTTTATAGCG [4149-8_408]
- Kd [1, 15]: 0.044 nM
- Kd [4, 15]: 0.043 nM
- Kd [3, 15]: 0.041 nM
